From US20040037843A1
Like-named read-outs stand apart in the source and are kept apart here. Each block holds one binder with its values, some of them ahead of it. Ends that are not written are not given here.

How the values were obtained:
HLA-A*0201 (human) [1] = conditions: remark: other sources report otherwise
HLA-A*0206 (human) [2] = assay: inhibition of 125I probe peptide binding to purified HLA; conditions: remark: other sources report otherwise
HLA-A*2401 (human) = assay: competition with 125I-labelled probe peptide for purified HLA, gel filtration
HLA-A*0202 (human) [3] = assay: competition with 125I-labelled standard peptide for purified HLA, gel filtration; conditions: remark: other sources report otherwise
HLA-A*0203 (human) [4] = assay: as above; conditions: remark: other sources report otherwise
[5] = target: HLA-A*2401 (purified HLA class I molecule) (human); assay: as above
HLA-A*0203 (human) [6] = conditions: remark: other sources report otherwise
HLA-A*0206 (human) [7] = assay: competition with 125I-labelled standard peptide for purified HLA, gel filtration; conditions: remark: other sources report otherwise
HLA-A*0201 (human) [8] = assay: inhibition of 125I probe peptide binding to purified HLA; conditions: remark: other sources report otherwise
HLA-A*0203 (human) [9] = assay: as above; conditions: remark: other sources report otherwise
HLA-A*0202 (human) [10] = assay: as above; conditions: remark: other sources report otherwise
HLA-A*0201 (human) [11] = conditions: remark: other sources report otherwise; remark: listed apart in the source
[12] = scale: ratio to standard peptide

IC50 (HLA-A*0201 (human) [1]): < 200 nM
B1: PSM.288 (peptide)
peptide: GLPSIPVHPI

IC50 (HLA-A*0206 (human) [2]): 95 nM
B2: Peptide 60.0201 … (PAP.6.V9) (peptide)
peptide: LLLARAASV

relative binding ratio (IC50 of standard peptide / IC50 of test peptide) (HLA-A*2401 (human)): 0.055
B3: Kallikrein position 248, 10 amino acids (peptide)
peptide: HYRKWIKDTI

IC50 (HLA-A*0201 (human) [1]): < 200 nM
B4: PSM.26 (peptide)
peptide: LVLAGGFFL

relative binding ratio (HLA-A*0202 (human) [3]; [12]): 0.0087
relative binding ratio (HLA-A*0203 (human) [4]; [12]): 0.0074
B5: PSA peptide, position 162, 11 amino acids (peptide)
peptide: LTPKKLQCVDL

relative binding ratio (IC50 of standard peptide / IC50 of test peptide) [5]: 0.11
B6: PAP position 183, 9 amino acids (peptide)
peptide: PYKDFIATL

IC50 (HLA-A*0201 (human) [1]): < 200 nM
B7: PSA.118 (9-mer …) (peptide)
peptide: MLLRLSEPA

IC50 (HLA-A*0201 (human) [1]): < 200 nM
B8: HuK2.175 (peptide)
peptide: SLHLLSNDMCA

IC50 (HLA-A*0203 (human) [6]): 250 nM
B9: peptide 1419.15 (HuK2.177) (peptide)
peptide: HLLSNDMCARA
modifications: not fully specified

relative binding ratio (HLA-A*0202 (human) [3]): 0.022
relative binding ratio (HLA-A*0203 (human) [4]): 0.011
relative binding ratio (HLA-A*0206 (human) [7]): 0.0006
B10: PSA position 12, 11 amino acids (peptide)
peptide: GAAPLILSRIV

relative binding ratio (IC50 of standard peptide / IC50 of test peptide) (HLA-A*2401 (human)): 0.17
B11: Kallikrein position 152, 9 amino acids (peptide)
peptide: CYASGWGSI

IC50 (HLA-A*0201 (human) [1]): < 200 nM
B12: PSM.662 (peptide)
peptide: RMMNDQLMFL

IC50 (HLA-A*0201 (human) [1]): < 200 nM
B13: PSM.27 (peptide)
peptide: VLAGGFFLL

relative binding ratio (HLA-A*0201 (human) [8]): 0.0074
relative binding ratio (HLA-A*0203 (human) [9]): 0.02
relative binding ratio (HLA-A*0206 (human) [2]): 0.003
B14: Kallikrein position 184, 10 amino acids (peptide)
peptide: CARAYSEKVT

IC50 (HLA-A*0202 (human) [10]): 0.6 nM
B15: Peptide 1097.09 … (PAP.21) (peptide)
peptide: LLFFWLDRSV

relative binding ratio (IC50 of standard peptide / IC50 of test peptide) [5]: 0.0013
B16: PAP position 62, 9 amino acids (peptide)
peptide: SWPQGFGQL

relative binding ratio (IC50 of standard peptide / IC50 of test peptide) [5]: 0.024
B17: PAP position 309, 10 amino acids (peptide)
peptide: PYASCHLTEL

relative binding ratio (IC50 of standard peptide / IC50 of test peptide) [5]: 0.0037
B18: PAP position 355, 10 amino acids (peptide)
peptide: RFAELVGPVI

IC50 (HLA-A*0201 (human) [1]): < 200 nM
B19: PAP.284 (peptide)
peptide: IMYSAHDTTV

relative binding ratio (IC50 of standard peptide / IC50 of test peptide) (HLA-A*2401 (human)): 0.0067
B20: PAP position 83, 10 amino acids (peptide)
peptide: EYIRKRYRKF

relative binding ratio (HLA-A*0201 (human) [8]): 0.0041
relative binding ratio (HLA-A*0202 (human) [10]): 0.018
relative binding ratio (HLA-A*0203 (human) [9]): 0.01
relative binding ratio (HLA-A*0206 (human) [2]): 0.0001
B21: PSA position 136, 11 amino acids (peptide)
peptide: DLPTQEPALGT

relative binding ratio (HLA-A*0201 (human) [8]): 0.0013
relative binding ratio (HLA-A*0202 (human) [10]): 0.037
relative binding ratio (HLA-A*0203 (human) [9]): 0.025
relative binding ratio (HLA-A*0206 (human) [2]): 0.0002
B22: PSA position 194, 11 amino acids (peptide)
peptide: CAGRWTGGKST

IC50 (HLA-A*0201 (human) [8]): 6.9 nM
IC50 (HLA-A*0202 (human) [10]): 8.1 nM
B23: Peptide 63.0142 … (PAP.30) (peptide)
peptide: VLAKELKFVTL

relative binding ratio (IC50 of standard peptide / IC50 of test peptide) (HLA-A*2401 (human)): 0.0007
B24: PAP position 17, 10 amino acids (peptide)
peptide: GFLFLLFFWL

IC50 (HLA-A*0201 (human) [1]): < 200 nM
B25: PSM.441 (peptide)
peptide: LLQERGVAYI

relative binding ratio (IC50 of standard peptide / IC50 of test peptide) (HLA-A*2401 (human)): 0.0002
B26: PAP position 186, 9 amino acids (peptide)
peptide: DFIATLGKL

relative binding ratio (IC50 of standard peptide / IC50 of test peptide) [5]: 0.0005
B27: PAP position 41, 10 amino acids (peptide)
peptide: VFRHGDRSPI

relative binding ratio (HLA-A*0201 (human) [8]): 0.0008
relative binding ratio (HLA-A*0203 (human) [9]): 0.0071
relative binding ratio (HLA-A*0206 (human) [2]): 0.0016
B28: PSA position 230, 11 amino acids (peptide)
peptide: CALPERPSLYT

IC50 (HLA-A*0201 (human) [1]): < 200 nM
B29: PSA.166 (peptide)
peptide: KLQCVDLHV

IC50 (HLA-A*0202 (human) [10]): 10 nM
IC50 (HLA-A*0206 (human) [2]): 378 nM
B30: Peptide 63.0031 … (PAP.7.V10) (peptide)
peptide: LLARAASLSV

relative binding ratio (IC50 of standard peptide / IC50 of test peptide) (HLA-A*2401 (human)): 0.0024
B31: PAP position 205, 9 amino acids (peptide)
peptide: IWSKVYDPL

IC50 (HLA-A*0202 (human) [10]): 307 nM
IC50 (HLA-A*0203 (human) [9]): 625 nM
B32: Peptide 60.0203 … (PAP.18.V9) (peptide)
peptide: FLFLLFFWV

IC50 (HLA-A*0206 (human) [2]): 381 nM
B33: Peptide 1419.55 … (PAP.92) (peptide)
peptide: FLNESYKHEQV

IC50 (HLA-A*0201 (human) [1]): < 200 nM
B34: PSM.711 (peptide)
peptide: ALFDIESKV

IC50 (HLA-A*0201 (human) [1]): < 200 nM
B35: PAP.92 (peptide)
peptide: FLNESYKHEQV

IC50 (HLA-A*0201 (human) [1]): < 200 nM
B36: PAP.21 (peptide)
peptide: LLFFWLDRSV

IC50 (HLA-A*0201 (human) [1]): < 200 nM
B37: PAP.299 (peptide)
peptide: ALDVYNGLL

IC50 (HLA-A*0201 (human) [1]): < 200 nM
B38: PSM.667 (peptide)
peptide: QLMFLERAFI

IC50 (HLA-A*0201 (human) [1]): < 200 nM
B39: PAP.30 (peptide)
peptide: VLAKELKFV

IC50 (HLA-A*0201 (human) [8]): 227 nM
IC50 (HLA-A*0206 (human) [2]): 95 nM
B40: Peptide 63.0137 … (PAP.11) (peptide)
peptide: AASLSLGFLFL

relative binding ratio (IC50 of standard peptide / IC50 of test peptide) (HLA-A*2401 (human)): 0.015
B41: PAP position 116, 9 amino acids (peptide)
peptide: AMTNLAALF

IC50 (HLA-A*0201 (human) [1]): < 200 nM
B42: PSA.117 (peptide)
peptide: LMLLRLSEPA

IC50 (HLA-A*0201 (human) [1]): < 200 nM
B43: PSM.168 (peptide)
peptide: GMPEGDLVYV

relative binding ratio (HLA-A*0201 (human) [8]): 0.0003
B44: PSA position 136, 9 amino acids (peptide)
peptide: DLPTQEPAL

relative binding ratio (IC50 of standard peptide / IC50 of test peptide) (HLA-A*2401 (human)): 0.0016
B45: PAP position 17, 9 amino acids (peptide)
peptide: GFLFLLFFW

IC50 (HLA-A*0201 (human) [8]): 500 nM
IC50 (HLA-A*0202 (human) [10]): 5.2 nM
IC50 (HLA-A*0206 (human) [2]): 9250 nM
B46: Peptide 20.0203 … (PAP.7) (peptide)
peptide: LLARAASLSL

IC50 (HLA-A*0201 (human) [8]): 40 nM
B47: Peptide 1419.51 … (PAP.13) (peptide)
peptide: SLSLGFLFLL

relative binding ratio (IC50 of standard peptide / IC50 of test peptide) (HLA-A*2401 (human)): 0.0017
B48: PAP position 23, 9 amino acids (peptide)
peptide: FFWLDRSVL

IC50 (HLA-A*0206 (human) [2]): 822 nM
B49: Peptide 63.0139 … (PAP.21) (peptide)
peptide: LLFFWLDRSVL

IC50 (HLA-A*0203 (human) [6]): 4.2 nM
B50: peptide 1419.07 (HuK2.165) (peptide)
peptide: FLRPRSLQCV

relative binding ratio (IC50 of standard peptide / IC50 of test peptide) [5]: 0.0001
B51: PAP position 163, 10 amino acids (peptide)
peptide: RFQELESETL

IC50 (HLA-A*0201 (human) [8]): 208 nM
B52: Peptide 20.0044 … (PAP.6) (peptide)
peptide: LLLARAASL

relative binding ratio (IC50 of standard peptide / IC50 of test peptide) (HLA-A*2401 (human)): 0.0001
B53: Kallikrein position 156, 10 amino acids (peptide)
peptide: GWGSIEPEEF

IC50 (HLA-A*0201 (human) [1]): < 200 nM
B54: PAP.135 (peptide)
peptide: ILLWQPIPV

relative binding ratio (IC50 of standard peptide / IC50 of test peptide) [5]: 0.26
B55: PAP position 96, 9 amino acids (peptide)
peptide: SYKHEQVYI

IC50 (HLA-A*0201 (human) [1]): < 200 nM
B56: HuK2.165 (peptide)
peptide: FLRPRSLQCV

IC50 (HLA-A*0201 (human) [1]): < 200 nM
B57: PSA.143 (peptide)
peptide: ALGTTCYA

IC50 (HLA-A*0201 (human) [1]): < 200 nM
B58: PSA.161 (peptide)
peptide: FLTPKKLQCV

IC50 (HLA-A*0201 (human) [11]): 50 nM
B59: peptide 63.0109 (HuK2.120.V11) (peptide)
peptide: DLMLLRLSEPV

IC50 (HLA-A*0201 (human) [11]): 24 nM
B60: peptide 1418.15 (HuK2.9.V9) (peptide)
peptide: ALSVGCTGV
